B2: Kif7, endogenous mouse protein (natural protein, mouse (endogenous in E10.5 embryos), UniProt B7ZNG0 1-1348, looked up)
chain: MGLEAQRLPGAEEAPVRVALRVRPLLPKELLHGHQSCLRVEPERGRITLGRDRHFGFHVVLGEDTGQEAVYQACVQPLLEAFFEGFNATVFAYGQTGSGKTYTMGEASVASLHEDEQGIIPRAMAEAFKLIDENDLLDCLVHVSYLELYKEEFRDLLEVGTASRDIQLREDDRGNVVLCGVKEVDVEGLDEVLSLLEMGNAARHTGATHFNRLSSRSHTVFTVTLEQRGRTPSRLPRPAAGHLLVSKFHFVDLAGSERVLKTGSTGERLKESIQINSTLLALGNVISALGDPQRRGSHIPYRDSKITRILKDSLGGNAKTVMIACVSPSSSDFDETLNTLNYASRAQNIRNRATVNWHPEAERVPEEQAAGARGPPRHRSETRIIHRGRRVPCPAVGSAAVAAGLGAECARCRARTSAAYSLLRELQAEPGLPGAAARKVRDWLCAVEGERSTLSSASGPDSGIESAPAEDQAAQGTSGRKGDEGTQQLLTLQSQVARLEEENRDFLAALEDAMEQYKLQSDRLREQQEEMVELRLRLELAQPGWGAPGLLQGLPPGSFVPRPHTAPLGGAHTHMLGMMPSTCLPGEEVSSEQQVVSGKEVKAEVLAQADKLRSASSTTSEEEGEEEEEEEEEEEEPPRRTLYLRRNGISNWSQRAGLSPGSPPDRKGPEVCPEEPAAAIPAPQAVGSGKVPVQTRQAPAAMASEWRLAQAQQKIRELAINIRMKEELIGELVRTGKAAQALNRQHSQRIRELEQEAERVRAELCEGQRQLRELEGREPQDASERSRLQEFRKRVAAAQSQVQVLKEKKQATERLVSLSAQSETRLQELERNVQLMRRQQGQLQRRLREETEQKRRLETEMNKRQHRVKELELKHEQQQKILKIKTEEIAAFQRKRRSGSNGSVVSLEQQQKIEEQKKWLDQEMEKVLQQRRALEELGEELRKREVILAKKEALMQEKTGLESKRLRSSQALNEDIVRVSSRLEHLEKELSEKSGQLRQGSAQNQQQIRGEIDTLRQEKDSLLKQRLEIDSKLRQGSLLSPEEERTLFQLDEAIEALDAAIEYKNEAITCRQRVLRASASLLSQCEMNLMAKLSYLSSSETRALLCKYFDKVVTLREEQHQQQIAFSELEMQLEEQQRLVYWLEVALERQRLEMDRQLTLQQKEHEQNVQLLLQQGRDHLGEGLADSKRQYEARIHALEKELGRHMWINQELKQKLSAGSTAGQSQGCERRSLCLENRQCLGNEDGLHPAAPEPLWQSSLLEGVSRVWDESRDLVHAPLPLTWKRSSLCSEQGSSEESRVRETTEPPVGRVLPMGEVGLSWNFGPLPKPRWEPRRTSPGMIDVRKNPL
notes: Kif7, ciliary kinesin family protein, mouse, endogenous in E10.5 forelimb buds and whole embryos; source: endogenous, E10.5 mouse forelimb bud lysate or E10.5 whole embryo lysate (control or Tbx3 null)

Key:
[1] = molecular target: Suppressor of fused (Sufu), endogenous mouse protein (mouse (endogenous in E10.5 embryos)) (UniProt Q9Z0P7); experiment: co-IP; endogenous proteins; E10.5 whole mouse embryo lysates in Dignam buffer C, control (wt) embryos; Sufu-Gli3, Sufu-Kif7 and Tbx3-Spop also assayed in Tbx3 null (Tbx3 delta-fl/delta-fl, ko) embryos, where less Sufu-Gli3 and Sufu-Kif7 co-precipitated; 5-10 ug antibody overnight at 4 C, Protein-G Dynal beads, immunoblot, densitometry
[2] = molecular target: Kif7, endogenous mouse protein (mouse (endogenous in E10.5 embryos)) (UniProt B7ZNG0); experiment: co-IP; as a4, but lysates of Tbx3 null (Tbx3 delta-fl/delta-fl, ko) E10.5 embryos; Kif7-Gli3 co-precipitate compared with control (wt) embryos by densitometry
[3] = molecular target: T1, Suppressor of fused (Sufu), endogenous mouse protein (mouse (endogenous in E10.5 embryos), UniProt Q9Z0P7 1-484); experiment: co-IP; endogenous proteins; E10.5 whole mouse embryo lysates in Dignam buffer C, control (wt) embryos; Sufu-Gli3, Sufu-Kif7 and Tbx3-Spop also assayed in Tbx3 null (Tbx3 delta-fl/delta-fl, ko) embryos, where less Sufu-Gli3 and Sufu-Kif7 co-precipitated; 5-10 ug antibody overnight at 4 C, Protein-G Dynal beads, immunoblot, densitometry; settings: partners not purified
T1 construct: Suppressor of fused (Sufu), mouse, endogenous in E10.5 embryos; source: endogenous, E10.5 mouse whole embryo lysate (control or Tbx3 null)
T1 sequence (looked up): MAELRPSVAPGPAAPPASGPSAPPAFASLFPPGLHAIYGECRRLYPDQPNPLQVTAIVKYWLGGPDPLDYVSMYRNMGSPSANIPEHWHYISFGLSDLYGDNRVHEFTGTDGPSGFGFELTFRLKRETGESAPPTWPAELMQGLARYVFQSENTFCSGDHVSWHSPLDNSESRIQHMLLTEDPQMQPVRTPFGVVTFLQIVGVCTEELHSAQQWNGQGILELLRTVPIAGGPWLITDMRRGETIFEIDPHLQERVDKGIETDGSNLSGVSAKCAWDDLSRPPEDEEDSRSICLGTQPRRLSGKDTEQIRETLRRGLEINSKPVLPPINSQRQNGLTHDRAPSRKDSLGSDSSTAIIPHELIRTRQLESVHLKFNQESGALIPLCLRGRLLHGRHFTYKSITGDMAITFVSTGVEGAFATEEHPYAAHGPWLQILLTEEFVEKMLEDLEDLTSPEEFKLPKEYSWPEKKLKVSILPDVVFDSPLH

[4] = molecular target: B2; experiment: co-IP; as a4, but lysates of Tbx3 null (Tbx3 delta-fl/delta-fl, ko) E10.5 embryos; Kif7-Gli3 co-precipitate compared with control (wt) embryos by densitometry; settings: partners not purified
[5] = molecular target: T2, Gli3, endogenous mouse protein as precipitated by anti-Gli3 (Gli3FL and Gli3R not told apart) (mouse (endogenous in E10.5 embryos), UniProt Q61602 1-1583); experiment: as above; settings: partners not purified
T2 construct: Gli3 transcription factor, mouse, endogenous; Used only for the lanes in which Gli3 was the bait (IP with anti-Gli3, blot for the partner); the forms Gli3FL and Gli3R are told apart only on anti-Gli3 blots; also called endogenous Gli3; Gli3 proteins; source: endogenous, E10.5 mouse forelimb bud lysate or E10.5 whole embryo lysate (control or Tbx3 null)

Gli3 repressor form (Gli3R), endogenous mouse protein (from UniProt Q61602 1-1583) (domain or fragment)
fold more co-precipitated in controls than in Tbx3 mutants [1]: > 9 fold
band intensity ratio of control to mutant [2]: 0.25

Gli3 repressor form (Gli3R), endogenous mouse protein (from UniProt Q61602 1-1583)
fold more co-precipitated in Tbx3 mutants than in controls [2]: 3.3 fold

B1: full length Gli3 (Gli3FL), endogenous mouse protein (natural protein, mouse (endogenous in E10.5 embryos), UniProt Q61602 1-1583, looked up)
chain: MEAQAHSSTATERKKAENSIGKCPTRTDVSEKAVASSTTSNEDESPGQIYHRERRNAITMQPQSVQGLNKISEEPSTSSDERASLIKKEIHGSLPHLAEPSLPYRGTVFAMDPRNGYMEPHYHPPHLFPAFHPPVPIDARHHEGRYHYDPSPIPPLHVPSALSSSPTYPDLPFIRISPHRNPTAASESPFSPPHPYINPYMDYIRSLHSSPSLSMISAARGLSPTDAPHAGVSPAEYYHQMALLTGQRSPYADILPSAATAGAGAIHMEYLHAMDSTRFPSPRLSARPSRKRTLSISPLSDHSFDLQTMIRTSPNSLVTILNNSRSSSSASGSYGHLSASAISPALSFTYPSAPVSLHMHQQILSRQQSLGSAFGHSPPLIHPAPTFPTQRPIPGIPTVLNPVQVSSGPSESSQSKPTSESAVSSTGDPMHNKRSKIKPDEDLPSPGSRGQQEQPEGTTLVKEEADKDESKQEPEVIYETNCHWEGCTREFDTQDQLVHHINNDHIHGEKKEFVCRWLDCSREQKPFKAQYMLVVHMRRHTGEKPHKCTFEGCTKAYSRLENLKTHLRSHTGEKPYVCEHEGCNKAFSNASDRAKHQNRTHSNEKPYVCKIPGCTKRYTDPSSLRKHVKTVHGPEAHVTKKQRGDMHPRPPPPRDSGSHSQSRSPGRPTQGAFGEQKELSNTTSKREECLQVKTVKAEKPMTSQPSPGGQSSCSSQQSPISNYSNSGLELPLTDGGSVADLSAIDETPIMDSTISTATTALALQARRNPAGTKWMEHIKLERLKQVNGMFPRLNPILPSKAPAVSPLIGNGTQSNNNYSSGGPGTLLPSRSDLSGVDFTVLNTLNRRDSNTSTISSAYLSSRRSSGISPCFSSRRSSEASQAEGRPQNVSVADSYDPISTDASRRSSEASQGDGLPSLLSLTPVQQYRLKAKYAAATGGPPPTPLPHMERLSLKTKMALLGEGRDSGVTLPPVHPPRRCSDGGGHTYRGRHLMPHDALANSVRRASDPVRTVSENMSLARVQRFSSLNSFNPPNLPPSVEKRSLVLQNYTRQESSQPRYFQASPCPPSITENVALEALTMDADANLNDEDLLPDDVVQYLNSQNQTGYGQQLQSGISEDSKVAHEPEDLDLAGLPDSHVGQEYPALEQPCSEGSKTDLPIQWNEVSSGTSDLSSSKLKCGQQRPSAQQPRGFGLYNNMVVHPHNLWKVGTGPAGGYQTLGENSSTYNGPEHFAIHSGDGLGTNGNTFHEQPFKTQQYGSQLNRQPLTSSALDHACGTGIQGSKLKGNSLQENGGLLDFSLSVAPNELAGNTVNGMQTQDQMGQGYIAHQLLSGSMQHQGPSRPGQQVLGQVGATSHINIYQGTESCLPGTQDNSSQPSSMAAIRGYQPCASYGGNRRQAMPRGNLTLQQGQLSDMSQSSRVNSIKMEAQGQSQQLCSTVQNYSGQFYDQTMGFSQQDRKAGSFSLSDANCLLQGNGTENSELLSPGANQVTSTVDSFESHDLEGVQIDFDAIIDDGDHTSLMSGALSPSIIQNLSHSSSRLTTPRASLPFPSLSMGTTNMAIGDMSSLLTSLAEESKFLAVMQ
notes: Gli3 transcription factor, mouse, the unprocessed full length form (Gli3FL band on anti-Gli3 immunoblots); also called GliFL; source: endogenous, E10.5 mouse forelimb bud lysate or E10.5 whole embryo lysate (control or Tbx3 null)
fold more co-precipitated in controls than in Tbx3 mutants [3]: 4.6 fold
band intensity ratio of control to mutant [4]: 0.1

B2
band intensity ratio of control to mutant [5]: 0.1
